The series deals with T1, GkDnaC K50A (Geobacillus kaustophilus HTA426, UniProt Q5KU75 1-454, K50A).
T1 sequence: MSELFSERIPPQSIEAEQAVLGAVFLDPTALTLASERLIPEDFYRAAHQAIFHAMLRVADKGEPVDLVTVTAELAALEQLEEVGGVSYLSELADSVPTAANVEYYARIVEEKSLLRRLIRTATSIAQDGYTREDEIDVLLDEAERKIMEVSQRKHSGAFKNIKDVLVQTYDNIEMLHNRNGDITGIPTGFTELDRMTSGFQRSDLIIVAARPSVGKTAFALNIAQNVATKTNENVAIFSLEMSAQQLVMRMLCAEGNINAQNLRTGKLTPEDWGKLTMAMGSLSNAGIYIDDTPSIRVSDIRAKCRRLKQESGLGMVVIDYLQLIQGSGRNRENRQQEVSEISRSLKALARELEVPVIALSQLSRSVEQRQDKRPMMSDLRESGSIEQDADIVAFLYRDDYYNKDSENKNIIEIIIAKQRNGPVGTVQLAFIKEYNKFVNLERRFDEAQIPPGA
Nature of the series: SPR. On the technique in general: In SPR one partner is held on a chip, and binding of the other changes the refractive index at the surface.

By Kd is commonly meant a measure of binding affinity in units of concentration. Lower therefore signals higher affinity. In the case of TTTTTTTTTTTTTTTTTTTTTTTTTTTTTT (ssDNA) [5'Bio-(dT)30], binding was characterised by a dissociation constant (Kd) of 1410 nM.

For the origin of these results see article PMC2647316 (Nucleic Acids Research, 2008).
